Patent US20220025381A1

Assays:
Assay in all cases: cell-based or functional assay
[1] = molecular target: T1, CD376 PV1-RfxCas13d-566C-NLS-BGHpA
T1 sequence: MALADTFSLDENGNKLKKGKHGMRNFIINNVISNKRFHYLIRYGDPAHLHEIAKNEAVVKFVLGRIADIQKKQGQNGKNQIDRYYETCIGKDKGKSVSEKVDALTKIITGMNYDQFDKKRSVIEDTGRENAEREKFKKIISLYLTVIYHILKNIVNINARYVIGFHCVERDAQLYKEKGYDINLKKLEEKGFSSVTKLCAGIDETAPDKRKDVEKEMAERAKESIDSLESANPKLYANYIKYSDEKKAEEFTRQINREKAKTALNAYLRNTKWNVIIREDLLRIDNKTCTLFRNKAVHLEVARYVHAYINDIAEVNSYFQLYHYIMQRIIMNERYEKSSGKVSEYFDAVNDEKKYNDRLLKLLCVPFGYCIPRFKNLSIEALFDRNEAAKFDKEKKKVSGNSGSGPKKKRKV

[2] = molecular target: T2, CD400 PV1-GAI-L1-RfxCas13d-264C-NLS-BGHpA
T2 sequence: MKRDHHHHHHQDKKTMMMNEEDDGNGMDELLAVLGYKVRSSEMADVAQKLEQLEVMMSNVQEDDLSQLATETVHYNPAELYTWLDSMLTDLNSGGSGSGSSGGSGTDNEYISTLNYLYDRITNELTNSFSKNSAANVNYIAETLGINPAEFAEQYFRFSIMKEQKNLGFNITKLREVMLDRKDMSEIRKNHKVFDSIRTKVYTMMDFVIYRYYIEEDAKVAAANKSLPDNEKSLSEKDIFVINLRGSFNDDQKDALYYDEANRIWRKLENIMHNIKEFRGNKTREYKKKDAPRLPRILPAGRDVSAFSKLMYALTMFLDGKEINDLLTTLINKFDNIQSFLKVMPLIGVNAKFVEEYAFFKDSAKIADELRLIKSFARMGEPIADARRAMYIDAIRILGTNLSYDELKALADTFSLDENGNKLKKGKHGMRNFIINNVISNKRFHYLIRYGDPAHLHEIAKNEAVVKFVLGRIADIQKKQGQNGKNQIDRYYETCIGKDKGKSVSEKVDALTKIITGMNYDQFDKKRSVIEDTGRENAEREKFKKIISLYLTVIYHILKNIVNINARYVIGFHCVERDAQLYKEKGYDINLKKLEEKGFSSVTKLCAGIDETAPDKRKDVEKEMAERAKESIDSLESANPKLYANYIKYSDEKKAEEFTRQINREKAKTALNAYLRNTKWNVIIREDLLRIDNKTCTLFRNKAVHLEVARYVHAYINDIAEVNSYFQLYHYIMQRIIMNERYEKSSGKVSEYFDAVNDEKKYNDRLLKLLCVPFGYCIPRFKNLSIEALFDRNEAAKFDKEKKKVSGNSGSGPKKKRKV

[3] = molecular target: T3, CD380 PV1-RfxCas13d-656C-NLS-BGHpA
T3 sequence: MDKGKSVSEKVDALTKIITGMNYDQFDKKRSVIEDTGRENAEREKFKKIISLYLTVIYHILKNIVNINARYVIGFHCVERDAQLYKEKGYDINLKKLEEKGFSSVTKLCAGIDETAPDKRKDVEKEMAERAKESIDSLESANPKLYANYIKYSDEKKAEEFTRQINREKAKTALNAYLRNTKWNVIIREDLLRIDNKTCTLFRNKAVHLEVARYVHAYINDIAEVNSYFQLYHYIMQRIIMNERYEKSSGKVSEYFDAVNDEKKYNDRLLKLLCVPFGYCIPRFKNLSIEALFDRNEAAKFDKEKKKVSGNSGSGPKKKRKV

B1: CD375 PV1-RfxCas13d-N565-NLS-BGHpA (protein)
chain: MIEKKKSFAKGMGVKSTLVSGSKVYMTTFAEGSDARLEKIVEGDSIRSVNEGEAFSAEMADKNAGYKIGNAKFSHPKGYAVVANNPLYTGPVQQDMLGLKETLEKRYFGESADGNDNICIQVIHNILDIEKILAEYITNAAYAVNNISGLDKDIIGFGKFSTVYTYDEFKDPEHHRAAFNNNDKLINAIKAQYDEFDNFLDNPRLGYFGQAFFSKEGRNYIINYGNECYDILALLSGLRHWVVHNNEEESRISRTWLYNLDKNLDNEYISTLNYLYDRITNELTNSFSKNSAANVNYIAETLGINPAEFAEQYFRFSIMKEQKNLGFNITKLREVMLDRKDMSEIRKNHKVFDSIRTKVYTMMDFVIYRYYIEEDAKVAAANKSLPDNEKSLSEKDIFVINLRGSFNDDQKDALYYDEANRIWRKLENIMHNIKEFRGNKTREYKKKDAPRLPRILPAGRDVSAFSKLMYALTMFLDGKEINDLLTTLINKFDNIQSFLKVMPLIGVNAKFVEEYAFFKDSAKIADELRLIKSFARMGEPIADARRAMYIDAIRILGTNLSYDELKPKKKRKV
B1 gave a gRNA induced knockdown of mCherry without CID domains [1] of less than 80%.

B2: CD399 PV1-RfxCas13d-N263-L1-GID-NLS-BGHpA (protein)
chain: MIEKKKSFAKGMGVKSTLVSGSKVYMTTFAEGSDARLEKIVEGDSIRSVNEGEAFSAEMADKNAGYKIGNAKFSHPKGYAVVANNPLYTGPVQQDMLGLKETLEKRYFGESADGNDNICIQVIHNILDIEKILAEYITNAAYAVNNISGLDKDIIGFGKFSTVYTYDEFKDPEHHRAAFNNNDKLINAIKAQYDEFDNFLDNPRLGYFGQAFFSKEGRNYIINYGNECYDILALLSGLRHWVVHNNEEESRISRTWLYNLDKNLSGGSGSGSSGGSGTMAASDEVNLIESRTVVPLNTWVLISNFKVAYNILRRPDGTFNRHLAEYLDRKVTANANPVDGVFSFDVLIDRRINLLSRVYRPAYADQEQPPSILDLEKPVDGDIVPVILFFHGGSFAHSSANSAIYDTLCRRLVGLCKCVVVSVNYRRAPENPYPCAYDDGWIALNWVNSRSWLKSKKDSKVHIFLAGDSSGGNIAHNVALRAGESGIDVLGNILLNPMFGGNERTESEKSLDGKYFVTVRDRDWYWKAFLPEGEDREHPACNPFSPRGKSLEGVSFPKSLVVVAGLDLIRDWQLAYAEGLKKAGQEVKLMHLEKATVGFYLLPNNNHFHNVMDEISAFVNAECPKKKRKV
With B2 the knockdown efficiency of mCherry with gibberellin and gRNA [2] was greater than 60%.

B3: CD379 PV1-RfxCas13d-N655-NLS-BGHpA (protein)
chain: MIEKKKSFAKGMGVKSTLVSGSKVYMTTFAEGSDARLEKIVEGDSIRSVNEGEAFSAEMADKNAGYKIGNAKFSHPKGYAVVANNPLYTGPVQQDMLGLKETLEKRYFGESADGNDNICIQVIHNILDIEKILAEYITNAAYAVNNISGLDKDIIGFGKFSTVYTYDEFKDPEHHRAAFNNNDKLINAIKAQYDEFDNFLDNPRLGYFGQAFFSKEGRNYIINYGNECYDILALLSGLRHWVVHNNEEESRISRTWLYNLDKNLDNEYISTLNYLYDRITNELTNSFSKNSAANVNYIAETLGINPAEFAEQYFRFSIMKEQKNLGFNITKLREVMLDRKDMSEIRKNHKVFDSIRTKVYTMMDFVIYRYYIEEDAKVAAANKSLPDNEKSLSEKDIFVINLRGSFNDDQKDALYYDEANRIWRKLENIMHNIKEFRGNKTREYKKKDAPRLPRILPAGRDVSAFSKLMYALTMFLDGKEINDLLTTLINKFDNIQSFLKVMPLIGVNAKFVEEYAFFKDSAKIADELRLIKSFARMGEPIADARRAMYIDAIRILGTNLSYDELKALADTFSLDENGNKLKKGKHGMRNFIINNVISNKRFHYLIRYGDPAHLHEIAKNEAVVKFVLGRIADIQKKQGQNGKNQIDRYYETCIGKPKKKRKV
For B3, the gRNA induced knockdown of mCherry without CID domains [3] was less than 80%.
